Reference: PMC10480186, “The self-association equilibrium of DNAJA2 regulates its interaction with unfolded substrate proteins and with Hsc70” (Nature Communications, 2023)

B1: DNAJA2ΔCD (domain or fragment)
chain: not shown
notes: DNAJA2, human, lacking the disordered C-terminal domain (deletion of residues 361 to 412, V361 to Q412)
B2: DNAJA2ΔG/FR (natural protein)
chain: not shown
notes: DNAJA2, human, lacking the glycine/phenylalanine-rich region (deletion of residues 77 to 101); For cryo-EM and XL-MS the sample was cross-linked with BS3; also called DnaJA2∆G/FR; DnJA2ΔG/FR
B3: DNAJA2ΔZFLR (natural protein)
chain: not shown
notes: DNAJA2, human, lacking the Zn-finger-like region (deletion of residues 141 to 209)
B4: DNAJA2LQ (natural protein)
chain: not shown
notes: DNAJA2, human, with L135 and Q136 in the CTDI mutated to Glu
B5: DNAJA2wt (natural protein)
chain: not shown
notes: DNAJA2, human class A J-domain protein; last residue Q412; Dimers that assemble into tubular oligomers; For cryo-EM and XL-MS the sample was cross-linked with BS3; The Ni-NTA-Nanogold is said to label Hsc70 specifically, so the His6-SUMO tag was probably removed; also called DnaJ2A
B6: Glucose-6-phosphate dehydrogenase (G6PDH) from Leuconostoc mesenteroides, aggregated (enzyme, UniProt P11411 1-486, looked up)
chain: MVSEIKTLVTFFGGTGDLAKRKLYPSVFNLYKKGYLQKHFAIVGTARQALNDDEFKQLVRDSIKDFTDDQAQAEAFIEHFSYRAHDVTDAASYAVLKEAIEEAADKFDIDGNRIFYMSVAPRFFGTIAKYLKSEGLLADTGYNRLMIEKPFGTSYDTAAELQNDLENAFDDNQLFRIDHYLGKEMVQNIAALRFGNPIFDAAWNKDYIKNVQVTLSEVLGVEERAGYYDTAGALLDMIQNHTMQIVGWLAMEKPESFTDKDIRAAKNAAFNALKIYDEAEVNKYFVRAQYGAGDSADFKPYLEELDVPADSKNNTFIAGELQFDLPRWEGVPFYVRSGKRLAAKQTRVDIVFKAGTFNFGSEQEAQEAVLSIIIDPKGAIELKLNAKSVEDAFNTRTIDLGWTVSDEDKKNTPEPYERMIHDTMNGDGSNFADWNGVSIAWKFVDAISAVYTADKAPLETYKSGSMGPEASDKLLAANGDAWVFKG
notes: glucose-6-phosphate dehydrogenase, Leuconostoc mesenteroides; Thermally denatured and aggregated before the co-sedimentation assay; native G6PDH served as the control that was subtracted; also called G6PDH aggregates; source: bought: Worthington

How the values were obtained:
[1] = target: the molecule itself; test: cross-linking; 2 µM protein, 0.005% glutaraldehyde, 15 min at 4 °C in 20 mM Hepes pH 7.6, 50 mM KCl, 5 mM MgCl2, 2 mM DTT; SDS-PAGE, Coomassie; monomer, dimer and oligomer bands
[2] = target: B6; test: co-sedimentation; 2 µM Hsc70, 1 µM J-domain protein (DNAJB1, DNAJA2ΔCD or DNAJA2wt), 0.4 µM Apg2, 0.4 µM aggregated or native G6PDH; pellets on SDS-PAGE, band intensities; amounts in pellets with native G6PDH subtracted; conditions: both partners purified
[3] = target: the molecule itself; test: negative-stain electron microscopy; samples on carbon-coated grids, 2% uranyl acetate; 15 µM protein; tubular oligomers of dimers
[4] = target: the molecule itself; test: dynamic light scattering; 30 µM protein in 20 mM Hepes-KOH pH 7.6, 50 mM KCl, 2 mM DTT; volume-based size distributions; the wt also with 300 mM NaCl, 5% 1,6-hexanediol or at 40 °C, which shift it to smaller particles; self-association: dimer and dimers to larger oligomers
[5] = target: the molecule itself; test: static light scattering; 15 µM DNAJA2 in refolding buffer (20 mM Hepes-KOH pH 7.6, 50 mM KCl, 5 mM MgCl2, 2 mM DTT) heated to 40 °C and cooled back to 25 °C; oligomers to dimers
[6] = target: T1, Hsc70wt (human, UniProt P11142 1-646); test: co-sedimentation; 2 µM Hsc70, 1 µM J-domain protein (DNAJB1, DNAJA2ΔCD or DNAJA2wt), 0.4 µM Apg2, 0.4 µM aggregated or native G6PDH; pellets on SDS-PAGE, band intensities; amounts in pellets with native G6PDH subtracted; conditions: both partners purified
T1 construct: Hsc70 (HSPA8), the constitutively expressed Hsp70 isoform, cDNA from Addgene; also called HSPA8
T1 sequence (P11142 whole entry, canonical isoform): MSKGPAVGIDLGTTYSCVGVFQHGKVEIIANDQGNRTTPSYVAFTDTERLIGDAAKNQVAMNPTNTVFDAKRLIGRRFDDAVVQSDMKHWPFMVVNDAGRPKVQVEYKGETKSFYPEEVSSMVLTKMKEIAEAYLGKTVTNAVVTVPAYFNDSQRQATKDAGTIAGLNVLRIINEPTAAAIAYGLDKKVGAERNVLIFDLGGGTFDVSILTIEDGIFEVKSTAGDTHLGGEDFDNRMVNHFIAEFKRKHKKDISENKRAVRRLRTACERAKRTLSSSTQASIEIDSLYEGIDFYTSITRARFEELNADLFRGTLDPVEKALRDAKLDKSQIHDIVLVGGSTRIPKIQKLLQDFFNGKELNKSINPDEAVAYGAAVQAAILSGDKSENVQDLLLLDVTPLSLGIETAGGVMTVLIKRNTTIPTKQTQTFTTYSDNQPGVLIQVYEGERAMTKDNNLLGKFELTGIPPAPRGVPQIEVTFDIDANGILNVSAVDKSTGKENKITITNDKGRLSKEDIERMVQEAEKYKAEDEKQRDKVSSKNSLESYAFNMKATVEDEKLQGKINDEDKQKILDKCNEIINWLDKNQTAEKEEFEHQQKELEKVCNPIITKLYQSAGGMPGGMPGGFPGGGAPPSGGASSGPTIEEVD

Binder: B1
- stoichiometry N [1]: 2
- binding result [2]: binds

Binder: B2
- binding result [3]: binds

Binder: B3
- stoichiometry N [1]: ≤ 2
- stoichiometry N [4]: 2

Binder: B4
- stoichiometry N [1]: ≤ 2

Binder: B5
- fold reduction of the aggregate-bound amount against DNAJB1 [2]: ~2 fold
- t1/2 of the temperature-induced dissociation of the oligomers (40 °C) [5]: 2.3 min

Binder: B6
- binding result [6]: binds
